B1: CCL5/RANTES (ligand, UniProt P13501 24-91, looked up)
chain: SPYSSDTTPCCFAYIARPLPRAHIKEYFYTSGKCSNPAVVFVTRKNRQVCANPEKKWVREYINSLEMS
B2: CCL3/MIP-1alpha (ligand, UniProt P10147 24-92, looked up)
chain: SLAADTPTACCFSYTSRQIPQNFIADYFETSSQCSKPGVIFLTKRSRQVCADPSEEWVQKYVSDLELSA
notes: also called CCL/MIP-1alpha; 125I-MIP-1alpha

Molecular target: T1, Bovine Serum Albumin (BSA) (bovine, UniProt P02769 25-607)
T1 construct: Negative control
Assay: proteins spotted on nitrocellulose filters, incubated with radiolabeled chemokine

T1 sequence (P02769 25-607 limits assumed): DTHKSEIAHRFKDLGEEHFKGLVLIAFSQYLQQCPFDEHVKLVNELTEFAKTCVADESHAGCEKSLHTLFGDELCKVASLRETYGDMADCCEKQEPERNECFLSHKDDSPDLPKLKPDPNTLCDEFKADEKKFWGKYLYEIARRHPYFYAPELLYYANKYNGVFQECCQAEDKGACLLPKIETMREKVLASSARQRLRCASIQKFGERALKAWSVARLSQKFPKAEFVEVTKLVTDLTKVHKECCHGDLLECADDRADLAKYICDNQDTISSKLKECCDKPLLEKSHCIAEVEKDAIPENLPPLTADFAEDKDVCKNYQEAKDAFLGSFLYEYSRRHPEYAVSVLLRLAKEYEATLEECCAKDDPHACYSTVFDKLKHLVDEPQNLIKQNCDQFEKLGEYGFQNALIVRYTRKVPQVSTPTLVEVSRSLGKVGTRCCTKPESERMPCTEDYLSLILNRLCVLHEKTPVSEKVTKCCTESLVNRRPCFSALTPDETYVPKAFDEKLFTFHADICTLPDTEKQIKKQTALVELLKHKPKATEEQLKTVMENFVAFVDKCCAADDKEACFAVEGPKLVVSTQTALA

Binder | binding result
B1 | no binding
B2 | no binding
